By EC50 is commonly meant the concentration at which the effect is half-maximal. A low value points to greater potency. Usually Kd stands for the equilibrium constant for the complex coming apart. Usually IC50 stands for the concentration needed to halve the response being measured. High values mean lower potency, low ones higher potency.

Experimental findings from patent publication US20230399395A1 (published 2023) are described below.

Numbering of substitutions follows the chain as printed. Some results are limits rather than exact numbers.

The labels stand for the following.
B1: Nb66 (VHH)
VHH: QVQLQESGGGSVQAGGSLRLSCAASGYTVSSNMGWFRQAPGKEREGVAAIYPDGATYYADSVKGRFTISQDNAENTVYLQMNSLKPEDTAMYYCAADLAFNGLGTLALHGYWGQGTQVTVSS
B2: Nb25 (VHH)
VHH: QVQLQESGGGSVQAGGSLRLSCAASEYTYSRYCMGWFRQVPGKEREGVATIDSDGSTSYADSVKGRFTISKDNAKNTLYLQMNSLKPEDTAMYYCAARYFYIATTGLRPCGEYEYNYWGQGTQVTVSS
B3: Nb92 (VHH)
VHH: QVQLQESGGGLVQPGGSLRLSCAASGFTFSNYYMSWVRQAPGKGLEWVSSISSDGSNTYYEDSVKGRFTISRDNANNTLYLQMNSLKSEDTALYHCATDLYDDSWYDHWGQGTQVTVSS
B4: Nb21 (VHH)
VHH: QVQLQESGGGSAQAGGSLKLSCVVSGYPYSGDYCMGWFRQAPGKEREGVAAFYTGGGSTYYADSVKGRFTTSQDNATSTFHLQMNSLKPEDTATYYCAADPWSVYGGSCGVKDPNPKAFNYWGQGTQVTVSS
B5: HuNb66-Fc (antibody, V domains shown)
VH: B1 VHH with Q1E, S11L, A14P, Q70R, A73S, V77L, K85R, P86A, Q117L
B6: HuNb21-Fc (antibody, V domains shown)
VH: EVQLQESGGGLVQPGGSLRLSCAASGYPYSGDYCMGWFRQAPGKEREGVAAFYTGGGSTYYADSVKGRFTISRDNSKNTLYLQMNSLRAEDTAVYYCAADPWSVYGGSCGVKDPNPKAFNYWGQGTLVTVSS

One test concerns the target T1, human IL5 (human, UniProt P05113 20-134, biotinylated (IL5-biotin) in Examples 2, 5, 6, 9 and 11; site not stated). The test can be described thus: ELISA. In general terms: In an ELISA, binding on a coated surface is turned into a signal by an enzyme label.
In turn, B1 registered an EC50 of 0.0327 µg/mL.

The molecule B2 displayed an EC50 of 0.0427 µg/mL.

With B3, the EC50 turned out to be 0.0432 µg/mL.

B4 registered an EC50 of 0.0357 µg/mL.

For another test, the target named is T1, human IL5. Kind of test: BLI. Background: BLI is a label-free optical method that tracks binding on a fibre tip over time.
On to B1, for which the Kd was < 0.001 nM.

As for B2, the Kd came out at 0.491 nM. In other words, the sub-nanomolar range.

For B3, the Kd was 0.385 nM.

Regarding B4, the affinity, expressed as Kd, was 0.629 nM.

In the next test the target is T1, human IL5. Kind of test: flow cytometry blocking IL5/IL5R. Background: In flow cytometry, cells or beads pass a laser one at a time.
B1 showed an IC50 of 1.17 µg/mL.

For the molecule B2, the IC50 stood at 2.62 µg/mL.

As to B3, half-maximal inhibition (IC50) required 2.29 µg/mL. This IC50 and that of the molecule before are within 1.5-fold of each other.

For the molecule B4, the IC50 came out at 1.57 µg/mL.

The target in another test is T1, human IL5. Kind of test: flow.
The molecule B5 yielded an IC50 of 5.73 µg/mL.

Molecule B6 gave an IC50 of 5.96 µg/mL. This IC50 and that of the molecule before are within 1.5-fold of each other.
